Test results published in patent publication US20160298152A1 (CALIFORNIA INSTITUTE OF TECHNOLOGY, published 2016).

Columns and labels:
[1] = target: T1, PfTrpB^4D11 (PfTrpB E17G, I68V, T292S, F274S, T321A)
T1 chain: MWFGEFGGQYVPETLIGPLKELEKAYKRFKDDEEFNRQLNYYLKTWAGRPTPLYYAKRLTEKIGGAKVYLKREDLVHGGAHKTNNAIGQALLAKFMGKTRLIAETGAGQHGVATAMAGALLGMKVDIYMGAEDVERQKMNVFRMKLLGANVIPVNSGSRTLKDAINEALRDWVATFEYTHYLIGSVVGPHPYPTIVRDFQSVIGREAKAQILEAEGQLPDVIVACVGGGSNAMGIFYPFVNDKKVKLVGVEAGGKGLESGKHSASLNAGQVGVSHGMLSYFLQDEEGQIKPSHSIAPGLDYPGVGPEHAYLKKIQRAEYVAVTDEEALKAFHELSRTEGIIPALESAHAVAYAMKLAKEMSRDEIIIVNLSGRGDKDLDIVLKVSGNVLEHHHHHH

[2] = target: T2, PfTrpB (wild-type β-subunit of tryptophan synthase from Pyrococcus furiosus)
T2 chain: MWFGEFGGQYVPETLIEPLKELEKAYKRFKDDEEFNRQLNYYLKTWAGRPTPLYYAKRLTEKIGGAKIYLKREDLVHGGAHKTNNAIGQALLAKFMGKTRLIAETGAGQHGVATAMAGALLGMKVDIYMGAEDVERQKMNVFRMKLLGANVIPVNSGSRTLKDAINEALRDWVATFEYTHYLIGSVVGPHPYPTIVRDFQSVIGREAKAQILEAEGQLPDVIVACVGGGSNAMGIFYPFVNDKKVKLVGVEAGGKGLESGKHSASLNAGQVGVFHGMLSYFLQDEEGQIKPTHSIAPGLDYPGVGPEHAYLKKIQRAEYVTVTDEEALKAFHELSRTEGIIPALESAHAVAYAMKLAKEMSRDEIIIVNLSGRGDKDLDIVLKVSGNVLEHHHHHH

[3] = target: T3, PfTrpB^0B2 (PfTrpB P12L, E17G, I68V, T292S, F274S, T321A)
T3 chain: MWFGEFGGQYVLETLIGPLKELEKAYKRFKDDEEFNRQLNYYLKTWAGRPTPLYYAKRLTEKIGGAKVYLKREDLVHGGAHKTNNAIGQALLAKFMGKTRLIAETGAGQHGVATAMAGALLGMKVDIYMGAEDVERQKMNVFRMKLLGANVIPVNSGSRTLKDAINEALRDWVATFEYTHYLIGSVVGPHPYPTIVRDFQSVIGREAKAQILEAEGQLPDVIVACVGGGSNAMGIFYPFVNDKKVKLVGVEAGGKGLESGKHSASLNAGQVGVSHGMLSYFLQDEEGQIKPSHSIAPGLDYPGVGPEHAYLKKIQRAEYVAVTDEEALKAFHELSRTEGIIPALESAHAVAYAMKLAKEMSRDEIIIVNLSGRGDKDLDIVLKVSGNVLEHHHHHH

[4] = target: T4, PfTrpB^2G9 (PfTrpB T292S)
T4 chain: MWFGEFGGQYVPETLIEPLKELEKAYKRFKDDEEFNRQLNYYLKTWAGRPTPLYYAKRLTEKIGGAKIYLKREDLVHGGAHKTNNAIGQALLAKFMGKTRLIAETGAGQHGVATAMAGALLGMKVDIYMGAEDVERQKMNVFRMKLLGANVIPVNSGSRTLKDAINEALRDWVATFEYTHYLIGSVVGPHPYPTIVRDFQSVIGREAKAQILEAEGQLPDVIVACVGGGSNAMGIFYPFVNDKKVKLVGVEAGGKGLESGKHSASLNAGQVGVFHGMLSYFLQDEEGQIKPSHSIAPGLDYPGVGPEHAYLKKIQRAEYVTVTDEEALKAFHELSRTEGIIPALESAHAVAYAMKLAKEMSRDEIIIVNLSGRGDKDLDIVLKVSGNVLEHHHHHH

[5] = target: T5, TmTrpB (wild-type β-subunit of tryptophan synthase from Thermotoga maritima)
T5 chain: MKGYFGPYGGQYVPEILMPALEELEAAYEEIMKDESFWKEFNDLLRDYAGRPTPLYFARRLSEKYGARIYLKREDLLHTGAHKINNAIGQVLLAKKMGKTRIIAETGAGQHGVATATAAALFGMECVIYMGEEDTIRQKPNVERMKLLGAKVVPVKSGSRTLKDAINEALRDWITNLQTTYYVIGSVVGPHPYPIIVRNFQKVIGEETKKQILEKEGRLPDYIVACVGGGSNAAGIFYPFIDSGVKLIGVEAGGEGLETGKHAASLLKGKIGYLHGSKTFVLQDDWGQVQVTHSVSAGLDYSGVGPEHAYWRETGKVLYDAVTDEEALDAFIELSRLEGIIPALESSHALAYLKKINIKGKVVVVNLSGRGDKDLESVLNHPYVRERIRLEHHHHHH

[6] = target: T6, PfTrpA (α-subunit of tryptophan synthase from Pyrococcus furiosus) (Pyrococcus furiosus, UniProt Q8U094 1-248); experiment: inferred from inhibition of enzyme activity on adding PfTrpA
T6 construct: Expressed in E. coli; Purified by Q HP HiTrap flow-through, ammonium sulfate precipitation and phenyl Sepharose chromatography; also called P. furiosus TrpA
T6 sequence (looked up): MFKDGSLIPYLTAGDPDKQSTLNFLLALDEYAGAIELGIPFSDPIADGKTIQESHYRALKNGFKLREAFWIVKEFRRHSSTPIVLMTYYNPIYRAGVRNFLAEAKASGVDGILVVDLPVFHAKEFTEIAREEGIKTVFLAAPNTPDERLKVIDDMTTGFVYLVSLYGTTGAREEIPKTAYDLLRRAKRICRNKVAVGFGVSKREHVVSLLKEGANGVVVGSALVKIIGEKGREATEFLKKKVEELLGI

B1: PfTrpA (α-subunit of tryptophan synthase from Pyrococcus furiosus) (protein)
chain: MFKDGSLIPYLTAGDPDKQSTLNFLLALDEYAGAIELGIPFSDPIADGKTIQESHYRALKNGFKLREAFWIVKEFRRHSSTPIVLMTYYNPIYRAGVRNFLAEAKASGVDGILVVDLPVFHAKEFTEIAREEGIKTVFLAAPNTPDERLKVIDDMTTGFVYLVSLYGTTGAREEIPKTAYDLLRRAKRICRNKVAVGFGVSKREHVVSLLKEGANGVVVGSALVKIIGEKGREATEFLKKKVEELLGI
**Q.** B1 was tested. Which kcat change with TrpA [1] did it give?
**A.** 0.3 fold

**Q.** And the “increase in catalytic efficiency” value [2]?
**A.** 12-fold increase in catalytic efficiency

**Q.** And the kcat change with TrpA [2]?
**A.** 3.2 fold

**Q.** What about the kcat change with TrpA [3] of the same binder?
**A.** 0.04 fold

**Q.** And the kcat change with TrpA [4]?
**A.** 0.34 fold

B2: TmTrpA (α-subunit of tryptophan synthase from Thermotoga maritima) (protein)
chain: MKGFIAYIPAGFPDLETTRKILIALNELGITGVEIGVPFSDPVADGPVIQLAHSVALRNGVTIKKILEMLSEISVDYDLYLMSYLNPIVNYPEGKEKLLDELKKLGVKGLIIPDLPLREVKNVDIAYPIVPFVAPNTKDEEIDLINSVQAPFVYYISRYGVTGEREDLPFADHIKRVKERIKLPLFVGFGISRHEQVKKVWEIADGVIVGSALVRIMEENPKDEIPRKVVEKVKELLGK
**Q.** B2 was tested. Which kcat (s^-1) of the TmTrpS complex [5] did it give?
**A.** 2.2 s⁻¹

B3: PfTrpB^0B2 (PfTrpB P12L, E17G, I68V, T292S, F274S, T321A) (enzyme)
chain: MWFGEFGGQYVLETLIGPLKELEKAYKRFKDDEEFNRQLNYYLKTWAGRPTPLYYAKRLTEKIGGAKVYLKREDLVHGGAHKTNNAIGQALLAKFMGKTRLIAETGAGQHGVATAMAGALLGMKVDIYMGAEDVERQKMNVFRMKLLGANVIPVNSGSRTLKDAINEALRDWVATFEYTHYLIGSVVGPHPYPTIVRDFQSVIGREAKAQILEAEGQLPDVIVACVGGGSNAMGIFYPFVNDKKVKLVGVEAGGKGLESGKHSASLNAGQVGVSHGMLSYFLQDEEGQIKPSHSIAPGLDYPGVGPEHAYLKKIQRAEYVAVTDEEALKAFHELSRTEGIIPALESAHAVAYAMKLAKEMSRDEIIIVNLSGRGDKDLDIVLKVSGNVLEHHHHHH
notes: not shown: C-terminal his-tag from pET22(b)+
**Q.** Does B3 bind [6]?
**A.** binds
